From patent publication US20160305947A1 (Merck Sharp & Dohme, published 2016)

Target: T1, human PD-L1 (Programmed Cell Death 1 Ligand 1) (human, UniProt Q9NZQ7 19-290)
T1 construct: whole, on cells; The target is the endogenous protein in FFPE tumor tissue after antigen retrieval, not a recombinant construct; also called B7-H1; PDCD1L1
Assay: IHC staining of FFPE human melanoma sections (chromogenic DAB and TSA fluorescence)
Method: After deparaffinization, antigens were retrieved by immersing the slides into Flex TRS (high pH) and allowing the temperature inside the PT Link to reach 97° C. for 20 minutes. Once this time elapsed, the chamber temperature was cooled to 75° C. Slides were removed from the PT Link and cooled to room temperature in Flex wash buffer.
Single parameter chromogenic immunohistochemical staining was performed using a mouse monoclonal anti-PD-L1 antibody (clone 22C3) and the brown DAB chromogen (FIG. 1, left column) Multiparametric fluorescence immunohistochemistry was performed using the protocol detailed in Example 1. In brief, formalin-fixed paraffin-embedded sections were stained using an anti-PD1 antibody (polyclonal goat anti-hPD-1, green) and an anti-PD-L1 antibody (clone 22C3, red). Representative patterns of PD-1 and PD-L1 are depicted in the images in the right-hand column. […] PD-L1 can be identified as being either (1) spatially apart from PD-1+ T cells (A, right); (2) associated with a minimal PD-1+ infiltrate (B, right); (3) expressed in the absence of concomitant PD-1+ T cells (C, right); or (4) strongly expressed in tight spatial proximity to PD-1+CD8 T cells (D, right).

T1 sequence (Q9NZQ7 19-290): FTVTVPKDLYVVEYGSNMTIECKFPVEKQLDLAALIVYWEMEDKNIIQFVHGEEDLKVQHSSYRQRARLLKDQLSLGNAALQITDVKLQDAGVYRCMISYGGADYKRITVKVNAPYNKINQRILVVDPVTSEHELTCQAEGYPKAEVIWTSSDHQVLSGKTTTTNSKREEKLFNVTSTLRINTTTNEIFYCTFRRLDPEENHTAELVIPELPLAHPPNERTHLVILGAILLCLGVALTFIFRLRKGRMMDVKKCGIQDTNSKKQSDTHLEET

B1: Mouse anti-human PD-L1 mAb (Clone 22C3) (antibody, mouse IgG1, kappa, V domains shown)
VH: QVHLQQSGAELAKPGASVKMSCKASGYTFTSYWIHWIKQRPGQGLEWIGYINPSSGYHEYNQKFIDKATLTADRSSSTAYMHLTSLTSEDSAVYYCARSGWLIHGDYYFDFWGQGTTLTVSS
VL: DIVMSQSPSSLAVSAGEKVTMTCKSSQSLLHTSTRKNYLAWYQQKPGQSPKLLIYWASTRESGVPDRFTGSGSGTDFTLTISSVQAEDLAVYYCKQSYDVVTFGAGTKLELKR
notes: Mouse IgG1, made in house, used at 2 ug/mL as the primary antibody in IHC; also called antibody 22C3; mouse monoclonal anti-PD-L1 antibody (clone 22C3)
binding result: binds
